Test: label from the status in PepcDB records

Sequence | protein production
DKGTALLVNRSLRFGERTAEELMTPRVKIVTLSTTDTVADLIDTASRTGFSRFPVVESDLDDAVGVVHIKHAFAVPAHRRRTARLNSLAQKVPVVPSSLDGDALMERIRSDGMQVAFVVDEYGGTAGMVTMEDLIEEIVGDVR | failed
DLAPSRVESLTLIMTSSGAQGLPMPNAALLQLLARRGAPDREVALEQQADLLAALGSPQVKDDREQLLHQAAVSYDRAFNPEGVKRQIMAILAEPSRVELLNRLRLPVLVVHGTADPLLPVMHGVHVAAHIQGSQLRLIPGLAHRFQEAFKAPLLGAVLPYLKA | failed
DMAFQLRTERLDLNMWEESDAVWLRELIGERGVEMPTVESVRNDLIEKRKIAVENGISLLTIRRRDEGDFIGYCGLIIGRSTLEEPEIAYELFRSAHRMGYATEAASAVLEAAIATGRKRLWSTVGAWNTASFRVLEKIGFKR | failed
DMLLVDEMKRGMAQGNASGKHLIILHTKGSHFNYTQRYPRSFAQWKPECVGVDNKCSKAELINSYDNSVTYVDHFIVSVLDQLRDKKAIVFYAADHGESINEREHLHGTPRKMAPPEQFRVPMMVWMSDKYLENPDHAAAFAHLQQQAAMKVPRRHVELYDTIMGCLGYTSPDGGINENNNWCRWKK | failed
DNHGVVHCVESAPAAVSAGKRALSQLVEDQKIVFHTETVERAMNQLPAPTLVVLDPPRVGAGAETVRAIAQSGPQAAIHIGCDPATFARDIAEWSRNGFILEKLRVFDAFPGTHHCETIGLLTKKN | failed
DNMEAVKTFNSELYSLNDYKPPISKAKMTQITKAAIKAIKFYKHVVQSVEKFIQKCKPEYKVPGLYVIDSIVRQSRHQFGQEKDVFAPRFSNNIISTFQNLYRCPGDDKSKIVRVLNLWQKNNVFKSEIIQPLLDMAAG | not failed
DPLDNLVAPTAAAAAAAAGKKKQPSAAAAAATKTTANKVANSNNKANAGSNIGGPNAKKPNQAEKENKPNNALNKTDGKKFTPSADNKQQQFNNNASSNYK | failed
DPQFHREGDDIVVEREIKFTDAALGASLDVPTLEGTKRVKVPAGIQSGTKIRLKGLGFPHMGKTAKGDLYVHINVSVPRSLSADQKAILEKLREAGL | failed
DPSPQTIYKWIKDNISPKLHVDKGFVNILMTSFLQYISSEVNPPSDETDSSSAPS | failed
DQDTLVQRAEHIPAGKRTPMCAHCNQVIRGPFLVALGKSWHPEEFNCAHCKNTMAYIGFVEEKGALYCELCYEKFFA | not failed
DQHRPATLEALLAGVSLLLPMLDAIPNAAIFIKDSAARYALANNTLVQRCGLKRLQPLLGKTSAEVFPAQFGPGYTEQDRRVLKEGLVLEDQLELHLYGSREPGWCLTHKRPLYNPAGEIIGLVGISVDLQSAADSHP | failed
DSFKTKSGKELTITFIKHGSLMLTYDNHSIQVDPVSEYADYTTFPKADIILITHEHGDHLDPKAIQAVEKSDTEIIANENSQKKLGKGKVLKNGDTDTSISYMKIEAVPAYNTTPGRDKYHPRHRDNGYILTFDGLRVYIAGDTEDIPEMKDLKDIDIAFLPVNQPYTMTVSQAAKAARMFSPKILYPYHYGDTKIGELKDALKDSGIDVRIRELQ | not failed
DSLKAEVNTLFARFDEQPLAAASIAQVHTAALFDGREVIVKVTRPNIRTQILQDFEIISWLGQSLESRLEAARALHLSEIIQDYRQIILNELDLTLEADNTRRMRHYFTGSSMMYVPEVY | not failed
DTVANASGPLMVEIVKTPGSALGISLTTTSLRNKSVITIDRIKPASVVDRSGALHPGDHILSIDGTSMEHCSLLEATKLLASISEKVRLEILPVPQSQRPLRPS | not failed
DVKEFCKKSLRVRKRQLKDLLYSLEDDNKELFERVIKLFENFKNRDEIFYEKISEEIVWTVKKNILFVNIEEGILKPQSKLDLLAIREILDEIKT | failed
DVTERRRAREALQESEARMKGIASNVPGMVFRLERPRAGAFSDFAYISEGSEALVGYSARELIESGRGIRGLVHPDDRERYWSSQMAALDENRDWHWQGRILTRQGELRWADIKASARCFEDGRAVWDGVVWD | failed
DVVVVGSGVAGPIVARDVAKAGFSVLLVDKKPAIGTPKQCAEGINVNVFKEFDIPYDKRFINREIYGARIYSPSGYTAELRYDKVSGVILERKVFDKMLAYYAAKAGADVWARTEVIDLLRKEGKIMGVKAKHEGELVEIEAKIIVAADGVESTVARLAGINTYAPPHEFDSAYEYEMIIEGYDPDLIHLWFGNEIAPRGYVWVFPKDEDRANVGIGINSDNEKTAKYYLDKWLKENNIPTKKILEINVGLVPVGGFVRELVKENVAVVGDAARQVNPVHGGGMYEAMKAANILAKWIVKALEEENLELLKNYTKEWWEVEGPKMERLLKLRRAMEKLTDEDIDVFVQLLGGTDLEKLAGGNYFEVVKALMKHPKVLMSKRRLEILKALL | failed
EDYSCFIFRHFPQVQIHPHAQRAAQAAEAAAAQGQFWLMNDTLFDHQQRLENGYLVEYANDLGLDIPQFLKELAKQVHVDRIKKDIEGGLQSGVMAVPALFVNGILYRDCWNIKQLIATIIASSY | failed
EEKVVAEQQADGTWLMDGWISIRKASNLLEHDLVDEAERYSTLGGYLLWQFGYIPAAGEQITVDGLIFEIVSVNKHNIGKVRVHRTQ | not failed

Sequence | protein production
EEKYVTVQPYTSQSKDEIGFEKGVTVEVIRKNLEGWWYIRYLGKEGWAPASYLKKAKD | not failed
EFTTMLGPAVLGLSLWALLHPGTGAPLCLSQQLRMKGDYVLGGLFPLGEAEEAGLRSRTRPSSPVCTRFSSNGLLWALAMKMAVEEINNKSDLLPGLRLGYDLFDTCSEPVVAMKPSLMFLAKAGSRDIAAYCNYTQYQPRVLAVIGPHSSELAMVTGKFFSFFLMPQVSYGASMELLSARETFPSFFRTVPSDRVQLTAAAELLQEFGWNWVAALGSDDEYGRQGLSIFSALAAARGICIAHEGLVPLPRADDSRLGKVQDVLHQVNQSSVQVVLLFASVHAAHALFNYSISSRLSPKVWVASEAWLTSDLVMGLPGMAQMGTVLGFLQRGAQLHEFPQYVKTHLALATDPAFCSALGEREQGLEEDVVGQRCPQCDCITLQNVSAGLNHHQTFSVYAAVYSVAQALHNTLQCNASGCPAQDPVKPWQLLENMYNLTFHVGGLPLRFDSSGNVDMEYDLKLWVWQGSVPRLHDVGRFNGSLRTERLKIRWHTSDNQKPVSRCSRQCQEGQVRRVKGFHSCCYDCVDCEAGSYRQNPDDIACTFCGQDEWSPERSTRCFRRRSRFLAWGEPAVLLLLLLLSLALGLVLAALGLFVHHRDSPLVQASGGPLACFGLVCLGLVCLSVLLFPGQPSPARCLAQQPLSHLPLTGCLSTLFLQAAEIFVESELPLSWADRLSGCLRGPWAWLVVLLAMLVEVALCTWYLVAFPPEVVTDWHMLPTEALVHCRTRSWVSFGLAHATNATLAFLCFLGTFLVRSQPGRYNRARGLTFAMLAYFITWVSFVPLLANVQVVLRPAVQMGALLLCVLGILAAFHLPRCYLLMRQPGLNTPEFFLGGGPGDAQGQNDGNTGNQGKHE | failed
EIESRELADIPVLHAYPVGQKDTPLPCVIFYHGFTSSSLVYSYFAVALAQAGLRVIMPDAPDHGSRFSGDAARRLNQFWQILLQSMQEFTTLRAAIAEENWLRDDRLAVGGASMGAMTALGITARHPTIKCTASMMGSGYFTSLARSLFPPLIPETAAQQNEFNNIVAPLAEWEATNHLEQLGDRPLLLWHGLDDDVVPADESLRLQQALSETGRDKLLTCSWQPGVRHRITPEALDAAVTFFLQHL | failed
EKAVLIGEKEADITFVTWGSQKGPILDVIEDLKEEGISANLLYLKMFSPFPTEFVKNVLSSANLVIDVESNYTAQAAQMIKLYTGIDIKNKILKYNGRHMTEDEILKSAKEILNKESLMVVLEDGS | failed
EKEDSKTRGEKIKSDFFELLSNHHLDSQSRWSKVKDKVESDPRYKAVDSSSMREDLFKQYIEKIAKNLDS | not failed
EKGDWAQFGRYAEANKTVKVPSNVVFMGNSITDGWWPADSTFFIRNNFVDRGISGQTTSEMLVRFRQDVINLKPKAVVILAGINDIAHNNGVIALENVFGNLVSMAELAKANHIKVIFCSVLPAYDFPWRPGMQPADKVIQLNKWIKEYADKNGLTYVDYHSAMKDERNGLPANLSKDGVHPTLEGYKIMEKIVLEAIHKTVK | not failed
EKGLEIAQERKARDEGWGDSIATMEMILKNAQGESSTRLMRLKSLEVEGDGDKGLTIFDQPRDVTGTAFLNHSHTIGADDQWLYLPALKRVKRISSRNKSGPFMGSEFAYEDLSSFEIEKYRFNHLKDEKFNGQDVFVLEQIPTDKNSGYTKQVVWLDKAHYRPLKVEFYDRKGALLKTLTFANYKQYLDKYWRAHTMAMTNHQTGKSTELNTSDLRFQTGLEENDFNKNVLKR | not failed
ELALWSPEVKIVELVKDCKGLGFSILDYQDPLDPTRSVIVIRSLVADGVAERSGGLLPGDRLVSVNEYCLDNTSLAEAVEILKAVPPGLVHLGIC | not failed
EMEEREIINNVFEFGDMQAKNAMVQRIDMVAIDMEDSYDEIIQVFKTEKLSRMPVYEETIDDIVGILNIKDIIFLSDEEIESFDIKNYMREPFFTYEFKKITQLLEEMKLEKSQMAIVVDEYGGTSGLLTIEDLVEVIVGDIE | not failed
EQAEAQLAELDLLASMFPGENELIVNDQLAVAELKDCIEKKTMEGRSSKVYFTINMNLDVSDEKMAMFSLACILPFKYPAVLPEITVRSVLLSRSQQTQLNTDLTAFLQKHCHGDVCILNATEWVREHASGYVSRDTSS | not failed
EQLPVLQTVPFAGSAEPVSLTRESVERSVGEANMQEQRKRVHAMLRDYELQLRINSDASQQDAHLTPDSE | not failed
EQLTLRHGTRADISEIAPLLARNAADPCELVDLEHALDLLTHESSHFLAVVRNARGKIIAAMQLTIVPEFSRGGALHLHIEGPFIIPEYRTTDLDKKLRAWAVEHGRARGVKVEEVVG | failed
EQVFAAECILSKRLRKGKLEYLVKWRGWSSKHNSWEPEENILDPRLLLAFQKKEHEKEVQN | not failed
ESELACVIALQDITLRVQETERLEKMLEHLPVCMVIMNQNDEVEQINQTGIELLGFERDEIVGNPVDLFIPQEQVESHKALLKKFFQEETVIDTRSLERDFKVKHKSGKLIEIQAVYTPVHFHN | failed
EVQKPLHEQLWYHGAIPRAEVAELLVHSGDFLVRESQGKQEYVLSVLWDGLPRHFIIQSLDNLYRLEGEGFPSIPLLIDHLLSTQQPLTKKSGVVLHRAVP | not failed
EVVVTALGIKREKKMLGYAVQELKSDELNKTGDPSVTSALQGKVAGLQMNTSATGLGGSTKITIRGNSSLTDNNQPLWIVDGVPFSDTSTSSASRYDGVDRGSASMDINPDDIESISVLKGPNAAALYGSRAGNGVILITTKKGSK | failed
FATTDDVILLWRQLSVDEIKRAEALLETVSDTLRLEASKVGKNLDEMILETPYFATVLKSVTVDIVARTLMTATQGEPMSQESQSALGYTWSGTYLVPGGGLFIKDSELKRLGLKKQRYGGI | failed
FEELLNALHDGVYITDGQGQTLKVNQAYERLTGLNGAELLGRPMQELVKSGVISQSASLRVLQDGRPVSVMQSLSHGKKLLVSATPILAADQSIRYVVSTVRDMTELLRIKRERDELQQL | failed

— a protein production outcome set (Wang et al. 2014)
